Data taken from patent publication US9951128B2, “Caninized anti-NGF antibodies and methods thereof” (ZOETIS SERVICES LLC, priority 2012, dated 2018).
Changes are numbered by the printed parent chain. Names may count otherwise. Read-outs that look alike come from different tables or passages of the source.

Assays:
canine NGF = assay: SPR (Biacore T100) binding of anti-NGF mAbs to canine NGF
Source text: As used herein, the term “affinity” refers to the strength of the binding of a single antigen-combining site with an antigenic determinant. Affinity depends on the closeness of stereochemical fit between antibody or antigen binding protein combining sites and antigen determinants, on the size of the area of contact between them, on the distribution of charged and hydrophobic groups, etc. Antibody affinity can be measured by equilibrium analysis or by the Surface Plasmon Resonance—“SPR” method (for example BIACORE™. The SPR method relies on the phenomenon of surface plasmon resonance (SPR), which occurs when surface plasmon waves are excited at a metal/liquid interface. Light is directed at, and reflected from, the side of the surface not in contact with sample, and SPR causes a reduction in the reflected light intensity at a specific combination of angle and wavelength. Bimolecular binding events cause changes in the refractive index at the surface layer, which are detected as changes in the SPR signal.
The generation of anti-drug antibodies (ADAs) can be associated with loss of efficacy for any biotherapeutic protein including monoclonal antibodies. Comprehensive evaluation of the literature has shown that speciation of monoclonal antibodies can reduce the propensity for mAbs to be immunogenic although examples of immunogenic fully human mAbs and non-immunogenic chimeric mAbs can be found. To help mitigate risks associated with ADA formation for the mouse anti-NGF, RN911, monoclonal antibody provided herein, a caninization strategy was employed. This caninization strategy is based on identifying the most appropriate canine germline antibody sequence for CDR grafting (FIG. 3). Following extensive analysis of all available canine germline sequences for both the heavy and light chains, germline candidates were selected on their homology to RN911, and the CDRs from RN911 were used to replace native canine CDRs. The objective was to retain high affinity and cell-based activity using fully canine frameworks to minimize the potential of immunogenicity in vivo. Caninized mAbs were optimized for mammalian expression, expressed and characterized for their ability to bind NGF via SPR. […] Only mAbs that retained both reliable expression levels and the ability to bind NGF following caninization were advanced for further characterization.
(§1) Affinities of each caninized anti-NGF antibody to canine NGF were measured using SPR (Surface Plasmon Resonance). In addition, a functional in vitro assay was developed to measure inhibition constants for the mAbs ability to inhibit binding of NGF to TrkA. […] Some affinity was lost, however, upon caninization to mAb CAN-N2G9-VH, CAN-E3M. Due to this loss of affinity, the caninized mAb was affinity matured (see Example 5 for details) to regain potency. Included in FIGS. 12 and 13 are the results of the affinity matured products, SSM57 (SEQ ID NO. 27 “CAN-SSM57-VH”, SEQ ID NO. 26 “CAN-SSME3M-VL”), SSM58 (SEQ ID NO. 28 CAN-SSM58-VH, SEQ ID NO. 26 “CAN-SSME3M-VL”), and SSM66 (SEQ ID NO.29 CAN-SSM66, SEQ ID NO. 26 CAN-SSME3M-VL) on each SPR assay.
SPR on the supernatants were performed as an initial screen, good binders were purified, and pure mAb was again run via SPR to measure binding to canine NGF (TABLE 5). Constructs LTM109 and LTM135 were chosen to progress based on binding affinities.
Various KD's correspond to different sensors, surface density varies slightly.
Mutated antibodies were expressed in HEK293 cells and evaluated for binding affinities to canine NGF (results below; expression results in Tables 7-9).

[1] = system: NGF binding to receptor trkA; assay: Functional in vitro assay: inhibition of NGF binding to TrkA (pre-incubated mAb+NGF); format: biochemical
NGF binding to receptor trkA, sequence (as listed by the source): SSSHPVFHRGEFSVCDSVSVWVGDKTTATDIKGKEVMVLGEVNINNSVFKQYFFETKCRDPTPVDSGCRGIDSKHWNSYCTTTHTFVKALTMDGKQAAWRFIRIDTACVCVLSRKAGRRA
Procedure: FIGS. 12A and B is a graphical representation of affinity data of caninized mAb (left). (Right) trkA inhibition data with pre-incubated mAb+NGF. (Bottom)
as §1

[2] = system: beagle (LPS-induced) synovitis pain model; assay: Dog LPS-induced synovitis pain model, lameness by visual analogue scale; format: in vivo; conditions: synovitis induced 7 and 28 days post-dose
Procedure: PK/PD data were generated with RN911 in the target species in a synovitis efficacy study. In the synovitis pain model, transient inflammation of the synovial membrane in a single stifle is induced via intra-articular injection of bacterial lipopolysaccharide (LPS). Quantifiable lameness occurs within 2h of synovitis induction, peaks at 3-4h, is waning by 6h and is fully resolved after 24h. From an IACUC perspective, it is acceptable to induce synovitis on two separate occasions (i.e., once in each stifle), provided the lameness associated with the first synovitis induction has fully resolved. Therefore we designed a study in which synovitis was induced in the same beagle 3 days and 7 days after IV treatment (RN911 or PBS vehicle). After each synovitis induction, lameness was quantified using a visual analogue scale (VAS).
At this time, the free RN911 serum concentrations averaged 24400±3900 ng/mL (170±27 nM; FIG. 2).
Caninized mAb (CAN-SSME3M-VL, CAN-SSM57-HC) was tested in dog synovitis model at 5 mg/kg IV and 5 mg/kg SC. Results of study are shown in FIG. 14, inducing synovitis at 7 days and 28 days post-dose.

[3] = system: rat MIA model of osteoarthritis; assay: Rat MIA osteoarthritis model, weight bearing test; format: in vivo, Rat Ola Wistar; conditions: dosed on study day 7 and study day 14
Procedure: Osteoarthritis (OA) is a degenerative joint disease characterized by joint pain and a progressive loss of articular cartilage. Intra-articular injection of MIA induces loss of articular cartilage with progression of subchondral bone lesions that mimic those of OA. This model offers a rapid and minimally invasive method to reproduce OA-like lesions in a rodent species.
Pain was assessed using weight bearing test for sustained pain and joint compression (Randall Selitto) test for mechanical hyperalgesia. See FIG. 17 for a schematic of the rat MIA procedure.
This training regime was required as it was anticipated that the level of variability within the experiment is relatively high. […]
Weight bearing deficits were measured in all rats on study day −1, this measurement served as a baseline. Weight bearing was then recorded on study days 9, 16, 21 and 28. […]
The weight bearing of each leg was measured separately by weight bearing apparatus (IITC, Series 8, Model 600®). This test quantifies the spontaneous postural changes reflecting spontaneous pain by independently measuring, on two separate sensors, the weight that the animal applies on each hind paw.
Results were calculated and represented as the percentage of weight that the animal leaned on the injected right leg or intact left leg from the total amount of leaned weight on the two hind legs. […]

[4] = canine NGF, 1:1 Binding fit, Table 9

canine NGF, sequence (as listed by the source): as above

B1: CanE3M 65112: caninized RN911 mAb: CAN-N2G9-VH (SEQ ID NO. 17), CAN-E3M-VL (SEQ ID NO. 16), CAN-65E-HC, CAN-KAPPA-LC (antibody, V domains shown)
VH: EVQLVESGGDLARPGGSLKLSCVVSGFSLIGYDINWVRQAPGKGLQWVTMIWGDGTTDYNSALKSRFTVSRDNAMNTVYLQMNSLRVEDTAVYYCARGGYYYGTSYYFDYWGQGTLVTVSS
VL: DIVMTQTPLSLSVSPGETASISCRASQDISNHLNWFRQKPGQSPQRLIYYISRFHSGVPDRFSGSGSGTDFTLRISRVEADDTGVYYCQQSKTLPYTFGAGTKLEIK
modifications: canine constant regions without entries; canine
With B1 the Kd (canine NGF; Dog NGF, Biacore T100, purified mAb, run 11/8 (different sensors), read-out: KD (M) 11/8) was 3.35e-09 M, the Kd (canine NGF; Dog NGF, Biacore T100, purified mAb, run 11/22 (different sensors), read-out: KD (M) 11/22) was 1.46e-09 M and the Kd (canine NGF; Dog NGF, Biacore T100, purified mAb, run 11/24 (different sensors), read-out: KD (M) 11/24) was 2.35e-09 M. For the same molecule, the Kd (canine NGF; Dog NGF, Biacore T100, purified mAb, run 11/29 (different sensors), read-out: KD (M) 11/29) was 3.51e-09 M, the “Binding of mAbs to NGF (FIGS. 12 and 13)” value (canine NGF; SPR) was “high affinity binding” and the ka (canine NGF; [4]) was 17200 M⁻¹ s⁻¹. For the same molecule, the kd (canine NGF; [4]) was 8.11e-05 s⁻¹, the Kd (canine NGF; canine NGF, 1:1 Binding fit, Table 9, read-out: KD) was 4.7e-09 M and the “Binding to canine NGF after caninization / framework substitution” value (canine NGF; expressed in HEK 293) was “retained NGF binding”. The “Inhibition by mAbs of NGF binding to receptor trkA” value [1] was “potent inhibition”.

B2: SSM57: affinity matured caninized mAb: CAN-SSM57-VH (SEQ ID NO. 27), CAN-SSME3M-VL (SEQ ID NO. 26) (antibody, V domains shown)
VH: B1 VH with G31Q, Y101W, G103A
VL: B1 VL with D28S, H32N, R53S, K92H
modifications: canine
With B2 the “Efficacy in dog synovitis model” value ([2]; 5 mg/kg IV) was “showed efficacy”, the “Efficacy in dog synovitis model” value ([2]; 5 mg/kg SC) was “showed efficacy” and the “Binding affinities to canine NGF among SSM mutated antibodies” value (“Binding affinities” for short) (canine NGF) was “highest affinities”. The “Analgesic effect in the rat MIA model of osteoarthritis” value [3] was “demonstrated”.

B3: SSM58: affinity matured caninized mAb: CAN-SSM58-VH (SEQ ID NO. 28), CAN-SSME3M-VL (SEQ ID NO. 26) (antibody, V domains shown)
VH: B1 VH with G31E, Y101W, G103A
VL: B1 VL with D28S, H32N, R53S, K92H
modifications: canine
With B3 the “Binding affinities” value (canine NGF) was “highest affinities”.

B4: SSM66: affinity matured caninized mAb: CAN-SSM66-VH (SEQ ID NO. 29), CAN-SSME3M-VL (SEQ ID NO. 26) (antibody, V domains shown)
VH: B1 VH with G31E, D54T, Y101W, G103A
VL: B1 VL with D28S, H32N, R53S, K92H
modifications: canine
For B4, the “Binding affinities” value (canine NGF) was “highest affinities”.
